± gives the uncertainty stated by the source.
B1: COUP transcription factor 1, residues 83 to 159; numbered along this chain, P10589 (parent)
chain: HIECVVCGDKSSGKHYGQFTCEGCKSFFKRSVRRNLTYTCRANRNCPIDQHHRNQCQYCRLKKCLKVGMRREAVQRG
B2: Neutrophil cytosol factor 2, residues 456 to 514; numbered along this chain, P19878 (parent)
chain: LKKGSQVEALFSYEATQPEDLEFQEGDIILVLSKVNEEWLEGECKGKVGIFPKVFVEDC

Variants of: B1
Assay: abundance fitness (aPCA) (normalised: wild type 0, dead -1); higher = more abundant; growth selection in yeast, the domain comes from the species named
Conditions: Homo sapiens

| Variant | abundance fitness |
| --- | --- |
| R71N | -0.034 ± 0.062 |
| R71P | 0.023 ± 0.052 |
| R71Q | 0.049 ± 0.047 |
| R71S | 0.018 ± 0.037 |
| R71T | 0.02 ± 0.045 |
| R71V | -0.019 ± 0.037 |
| R71W | -0.085 ± 0.045 |
| R71Y | 0.089 ± 0.062 |
| E72A | -0.237 ± 0.048 |
| E72C | -0.337 ± 0.064 |
| E72D | -0.002 ± 0.06 |
| E72F | -0.316 ± 0.078 |
| E72G | -0.258 ± 0.038 |
| E72I | -0.325 ± 0.085 |
| E72L | -0.317 ± 0.044 |
| E72M | -0.262 ± 0.052 |
| E72P | -0.418 ± 0.076 |
| E72Q | -0.319 ± 0.055 |
| E72S | -0.252 ± 0.044 |
| E72T | -0.283 ± 0.056 |
| E72W | -0.248 ± 0.05 |
| E72Y | -0.177 ± 0.078 |

| Variant | abundance fitness |
| --- | --- |
| A73D | 0.112 ± 0.054 |
| A73F | 0.02 ± 0.061 |
| A73G | -0.025 ± 0.031 |
| A73H | 0.038 ± 0.064 |
| A73I | -0.239 ± 0.092 |
| A73K | -0.183 ± 0.056 |
| A73L | -0.04 ± 0.036 |
| A73M | -0.065 ± 0.045 |
| A73N | 0.064 ± 0.065 |
| A73P | -0.11 ± 0.05 |
| A73Q | 0.063 ± 0.046 |
| A73R | -0.275 ± 0.038 |
| A73S | -0.02 ± 0.039 |
| A73T | -0.034 ± 0.048 |
| A73V | -0.052 ± 0.037 |
| A73Y | -0.061 ± 0.068 |
| V74A | 0.028 ± 0.041 |
| V74C | -0.032 ± 0.052 |
| V74D | -0.065 ± 0.056 |
| V74E | -0.004 ± 0.042 |
| V74F | -0.175 ± 0.06 |
| V74G | -0.102 ± 0.034 |

| Variant | abundance fitness |
| --- | --- |
| V74H | -0.104 ± 0.084 |
| V74I | -0.292 ± 0.072 |
| V74K | -0.264 ± 0.059 |
| V74L | -0.224 ± 0.04 |
| V74M | -0.185 ± 0.055 |
| V74N | -0.061 ± 0.065 |
| V74P | -0.151 ± 0.076 |
| V74Q | -0.063 ± 0.048 |
| V74R | -0.449 ± 0.044 |
| V74S | -0.199 ± 0.044 |
| V74T | -0.112 ± 0.053 |
| V74W | -0.3 ± 0.057 |
| V74Y | -0.353 ± 0.079 |
| Q75A | 0.125 ± 0.036 |
| Q75C | -0.07 ± 0.055 |
| Q75D | 0.211 ± 0.054 |
| Q75E | 0.104 ± 0.04 |
| Q75F | -0.026 ± 0.07 |
| Q75G | 0.084 ± 0.032 |
| Q75H | 0.222 ± 0.071 |
| Q75I | -0.077 ± 0.059 |
| Q75K | -0.071 ± 0.052 |

| Variant | abundance fitness |
| --- | --- |
| Q75L | -0.007 ± 0.036 |
| Q75M | -0.114 ± 0.052 |
| Q75N | -0.115 ± 0.083 |
| Q75P | 0.034 ± 0.058 |
| Q75R | -0.159 ± 0.034 |
| Q75S | -0.023 ± 0.04 |
| Q75W | -0.119 ± 0.044 |
| Q75Y | -0.219 ± 0.093 |
| R76A | -0.13 ± 0.045 |
| R76C | 0.082 ± 0.068 |
| R76D | 0.221 ± 0.066 |
| R76E | 0.11 ± 0.047 |
| R76F | 0.097 ± 0.1 |
| R76G | 0.161 ± 0.034 |
| R76H | 0.094 ± 0.083 |
| R76L | 0.024 ± 0.045 |
| R76M | -0.047 ± 0.058 |
| R76N | 0.123 ± 0.063 |
| R76P | -0.197 ± 0.07 |
| R76Q | 0.083 ± 0.055 |
| R76S | -0.048 ± 0.046 |
| R76T | 0.025 ± 0.051 |

| Variant | abundance fitness |
| --- | --- |
| R76V | -0.009 ± 0.045 |
| R76W | 0.007 ± 0.051 |
| R76Y | 0.046 ± 0.075 |
| G77A | 0.12 ± 0.061 |
| G77C | -0.096 ± 0.069 |
| G77D | 0.117 ± 0.093 |
| G77E | 0.06 ± 0.1 |
| G77F | -0.317 ± 0.18 |
| G77H | -0.004 ± 0.13 |
| G77I | -0.042 ± 0.11 |
| G77K | 0.101 ± 0.14 |
| G77L | -0.095 ± 0.064 |
| G77M | -0.017 ± 0.12 |
| G77N | -0.023 ± 0.093 |
| G77P | -0.013 ± 0.071 |
| G77Q | 0.304 ± 0.075 |
| G77R | -0.058 ± 0.046 |
| G77S | 0.064 ± 0.052 |
| G77T | -0.016 ± 0.07 |
| G77V | -0.041 ± 0.043 |
| G77W | -0.23 ± 0.074 |
| G77Y | -0.257 ± 0.14 |

Variants of: B2
Assay: as above
Conditions: Homo sapiens

| Variant | abundance fitness |
| --- | --- |
| N36T | -0.867 ± 0.22 |
| I50Y | -0.208 ± 0.14 |
| Q17P | -1.03 ± 0.34 |
| Q17I | -0.393 ± 0.11 |
| Q24V | -0.279 ± 0.11 |
| E43K | -0.235 ± 0.24 |
| V31W | -0.6 ± 0.45 |
| L32I | -0.06 ± 0.11 |
| E43S | 0.025 ± 0.076 |
| V54M | 0.378 ± 0.12 |
| D20V | -0.578 ± 0.13 |
| D27M | -0.377 ± 0.26 |
| V35F | -0.264 ± 0.12 |
| V35M | -0.081 ± 0.24 |
| E41F | 0.248 ± 0.083 |
| T16G | -0.192 ± 0.089 |
| L10P | -0.539 ± 0.27 |
| I50V | -0.298 ± 0.12 |
| L10N | -0.226 ± 0.5 |

| Variant | abundance fitness |
| --- | --- |
| Y13H | -0.104 ± 0.12 |
| W39R | -0.893 ± 0.16 |
| K53G | 0.02 ± 0.1 |
| D27V | -0.969 ± 0.24 |
| C44M | 0.102 ± 0.21 |
| P18C | -0.691 ± 0.14 |
| T16N | -0.304 ± 0.14 |
| L10K | -0.611 ± 0.31 |
| L32Q | -0.143 ± 0.34 |
| I29H | -0.595 ± 0.17 |
| F11G | -0.176 ± 0.2 |
| S33G | 0.378 ± 0.069 |
| P18D | 0.315 ± 0.12 |
| L1W | 0.161 ± 0.2 |
| F23Q | 0.047 ± 0.35 |
| F11S | -0.333 ± 0.21 |
| P18M | -0.235 ± 0.24 |
| D27C | -0.301 ± 0.13 |
| E25M | -0.264 ± 0.34 |

| Variant | abundance fitness |
| --- | --- |
| N36F | -0.446 ± 0.11 |
| Q24Y | -0.44 ± 0.21 |
| E19K | -0.723 ± 0.4 |
| K2M | -0.593 ± 0.29 |
| Q17A | 0.324 ± 0.088 |
| L10S | -0.789 ± 0.29 |
| E22C | -0.627 ± 0.14 |
| L40R | -0.217 ± 0.12 |
| A9S | -0.726 ± 0.25 |
| P52M | -0.253 ± 0.33 |
| V48P | -1.04 ± 0.37 |
| C44R | -0.336 ± 0.12 |
| L32T | 0.325 ± 0.088 |
| E37Y | -0.345 ± 0.34 |
| K2W | -0.109 ± 0.27 |
| E57D | -0.254 ± 0.17 |
| V35D | -0.588 ± 0.17 |
| K3G | -0.714 ± 0.38 |
| A15T | -1.03 ± 0.37 |

From the Human Domainome abundance scans (Beltran et al. 2025)
